Patent US20250297013A1 (HK INNO N, published 2025)
Where a chain is given by its changes, count along the chain named.

B1: Anti-HLA-G antibody 1 (antibody, V domains shown)
VH: EVQLLESGGGLVQPGGSLRLSCAASGFTFSDYAMSWVRQAPGKGLEWVSVISHDGDRVYYADSVKGRFTISRDNSKNTLYLQMNSLRAEDTAVYYCAKGPRRIANAIFDYWGQGTLVTVSS
VL: QLVLTQPPSVSGAPGQKVTISCSGSSSNIGHSYVSWYQQLPGTAPKLLIYGDNNRPSGVPDRFSGSKSGTSASLAITGLQAEDEADYYCQSYDSSLSGYVFGTGTKVTVL
B2: Anti-HLA-G antibody 2 (antibody, IgG1, V domains shown)
VH: B1 VH with D56G, R57S, V58I
VL: B1 VL with L2F, G12A, S26N, H31N, L40V, T43A, K46R, D52S, N53T
B3: Anti-HLA-G antibody 4 (antibody, IgG1, V domains shown)
VH: EVQLLESGGGLVQPGGSLRLSCAASGFTFSDYSMSWVRQAPGKGLEWVSAISPDSGSKYYADSVKGRFTISRDNSKNTLYLQMNSLRAEDTAVYYCAKGPRHLTNNIFDYWGQGTLVTVSS
VL: QSVLTQPPSASGTPGQRVTISCTGSSSNIGSNYVSWYQQLPGTAPKLLIYADSNRPSGVPDRFSGSKSGTSASLAISGLRSEDEADYYCASWDYSLSGYVFGGGTKLTVL
B4: Anti-HLA-G antibody 3 (antibody, IgG1, V domains shown)
VH: B3 VH with S55R, G56S, S57L, K58E
VL: QFVLTQPPSVSAAPGQKVTISCSGSSSNIGHSYVSWYQQLPGTAPKLLIYGNIHRPSGVPDRFSGSTSGTSASLAITGLQADDEADYYCGVWDSSLSAVVFGGGTKLTVL

Biological target: T1, HLA-G dimer (signal peptide-b2m-HLA-G-6xHis antigen of Example 1, dimer fraction) (human)
T1 construct: also called HLA-G multimers
Assay: SPR, HLA-G dimer

Kd | Binder
1.11 nM | B1
0.841 nM | B2
4.88 nM | B3
3.98 nM | B4

Biological target: T2, HLA-G monomer (signal peptide-b2m-HLA-G-6xHis antigen of Example 1, monomer fraction) (human)
T2 construct: also called b2m-HLA-G antigen
Assay: SPR, HLA-G monomer

Kd | Binder
15 nM | B1
9.3 nM | B2
28.1 nM | B4

Biological target: T3, HLA-G antigen produced in Example 1 (signal peptide-b2m-HLA-G-6xHis; monomer or dimer not stated) (human)
T3 construct: also called b2m-HLA-G antigen
Assay: Octet (BLI); form of the antigen not stated

Kd | Binder
0.284 nM | B1
0.549 nM | B2
1.45 nM | B3
1.06 nM | B4

Biological target: T1, HLA-G dimer (signal …)
Assay: CD8a block ELISA: dimeric antigen coated, antibody 0.391 nM, competitor CD8a-His 100 nM, anti-CD8a-HRP detection

CD8a Block EIA (%) | Binder
39.5% | B1
39% | B2
32.1% | B3
37.7% | B4

Biological target: T3, HLA-G antigen produced in Example 1 …
Assay: ILT2 block ELISA: competitor ILT-2-Fc coated, antigen of Example 1 pre-mixed with antibody dilutions, anti-His-HRP detection

IC50 | Binder
155 nM | B1
146 nM | B2
144 nM | B3
164 nM | B4
